Laboratory results reported in patent US12233132B2, “Polyoxazoline-lipid conjugates and lipid nanoparticles and pharmaceutical compositions including same” (Serina Therapeutics, Inc., priority 2021, dated 2025).

Key:
[1] = Hydrolysis kinetics of POZ-lipid conjugates in human plasma; format: in vitro ADME; conditions: for Half-Life 50% Human Plasma: 50% human plasma diluted in PBS, 37° C.; for rate of hydrolysis in plasma, ester versus ether linkages: compared with ether linkages (Compounds 17a, 17b and 17c)
Description: (§1) These solutions were spiked into the PBS or rat or human plasma media and allowed to incubate at 37° C. Samples were removed from hydrolysis media at different time intervals and quenched by addition of chilled 0.2% formic acid in methanol. […] The POZ-lipid conjugates were detected by UV absorption at 210 nm, and its breakdown and degradation metabolites were detected followed by mass spectrometry.

[2] = Hydrolysis kinetics of POZ-lipid conjugates in rat plasma; format: in vitro ADME; conditions: 50% rat plasma diluted in PBS, 37° C.
Description: as §1

Substance	Half-Life 50% Human Plasma [1] [h]	rate of hydrolysis in plasma, ester versus ether linkages [1]	Half-Life 50% Rat Plasma [2] [h]
PEOZ-(triazole-3-propionyl-DMG) 2K [Compound 19c]	7	faster rate	<1
PEOZ 2K DMG-(triazole-2-propionate) [Compound 19b]	5	faster rate	1
